Series [1] concerns wild type BpsA reporter expressed in E. coli BL21(DE3) from a pCDFDuet-based plasmid (slBPSA).
In series [2] the test system is BpsA, single module non-ribosomal peptide synthetase of Streptomyces lavendulae ATCC 11924, purified recombinant 6His-tagged protein (apo form).
For series [3], the system named is E. coli harbouring an activating PPTase. Kind of series: In vivo pigment synthesis activity of BpsA derivatives relative to wild type BpsA. The note with it: E. coli, supernatant A590. The format is cell-based. The source says: A detailed description of the method used for generation of mBpsA derivatives is given in Section 4.15. Briefly, a plasmid containing bpsA lacking its native T-domain (pBPSA3) was created. This plasmid contained restriction enzyme sites which were subsequently used to introduce foreign T-domain sequence. Foreign T-domains were then amplified from the chromosomal DNA of their host organisms and introduced into pBPSA3 to generate mBpsA derivatives which contained T-domains from foreign NRPS proteins in place of the native T-domain. Only the final embodiment of the T-domain swapping platform is described in this application. This embodiment is the result of rational in-silico design as well as trial and error, which are not described. Using this final platform, five different mBpsA derivatives were generated and subsequently assessed for in vivo pigment synthesis capacity in E. coli harbouring an activating PPTase. Table 3.1 gives a summary of the mBpsA derivatives generated as well as their in vivo pigment synthesis activities relative to wild type BpsA. The derivation of in vivo pigment synthesis activity was as described in 4.10.
For second tier screening, up to 45 improved clones, along with a positive and negative control, were stored as duplicate glycerol stocks in a 96wp. From this plate duplicate overnight cultures were established in LB supplemented with 0.4% glucose and appropriate antibiotics. […] Overnight cultures were grown for 16-20 h (37° C. 200 rpm) before transfer of 20 μl of each culture into a fresh well containing 130 μL LB supplemented with 115 mM L-Gln, 0.6 mM IPTG and appropriate antibiotics. Assay plates set up in this fashion contained duplicate cultures for each clone from two separate overnights. Assay plates were then wrapped in foil and incubated for 6-24 h (18° C., 200 rpm), depending on activity of improved clones. After incubation cells were collected at the corner of each well by centrifugation and OD 590 values determined using a microplate reader. Assays were repeated at least twice before determination of clones for sequence analysis.
In vivo pigment synthesis efficiencies for recombinant BpsA proteins described in Section 3.2 were derived from three separate assays. This was necessary due to the fact that pigment synthesis of wild type BpsA saturate before activity of mBpsA derivatives was detectable. Replicate cultures for determination of in vivo pigment synthesis activity were established from overnight starter cultures in a 96 wp as described in Section 4.9.3 The values presented are derived as follows: quadruplicate values for WT BpsA and oBpsA (mutant with reduced activity) were determined after 3 h, at which point pigment production was not saturated for WT. A separate quadruplicate assay was then run to obtain a value for slEntF by comparison to oBpsA after 12 h. Quadruplicate values for slPsT and slPvdD2 were then obtained in a separate assay by comparison to slEntF after 12 h.

As to “Sfp, phosphopantetheinyl transferase of Bacillus subtilis subsp. spizizenii ATCC6633”, the “production of indigoidine on co-expression in E. coli BL21(DE3)” value in series [1] was “co-expression of BpsA with any of the three PPTases selected (Sfp, PcpS and PP1183) resulted in substantial production of indigoidine”. In series [2], the Km (BpsA as variable substrate), BpsA coupled indigoidine assay was determined as 3.3 µM; the kcat (BpsA as variable substrate), BpsA coupled indigoidine assay was found to be 0.0357 s⁻¹; the kcat/Km (BpsA as variable substrate), BpsA coupled indigoidine assay was determined as 10800 M⁻¹ s⁻¹.

Turning to “PP1183, putative phosphopantetheinyl transferase of Pseudomonas putida KT2440”, in series [1], the “production of indigoidine on co-expression in E. coli BL21(DE3)” value is “co-expression of BpsA with any of the three PPTases selected (Sfp, PcpS and PP1183) resulted in substantial production of indigoidine”. In addition, in series [2], the Km (BpsA as variable substrate), BpsA coupled indigoidine assay was 8.6 µM; the kcat (BpsA as variable substrate), BpsA coupled indigoidine assay turned out to be 0.185 s⁻¹; the kcat/Km (BpsA as variable substrate), BpsA coupled indigoidine assay stood at 21500 M⁻¹ s⁻¹.

B1: slPsT1: mBpsA with T-domain from pspph1926 gene of P. syringae 1448a; SEQ ID NO: 9 (protein)
chain: MTLQETSVLEPTLQGTTTLPGLLAQRVAEHPEAIAVAYRDDKLTFRELASRSAALADYLEHLGVSADDCVGLFVEPSIDLMVGAWGILNAGAAYLPLSPEYPEDRLRYMIENSETKIILAQQRLVSRLRELAPKDVTIVTLRESEAFVRPEGTEAPAARSARPDTLAYVIYTSGSTGKPKGVMIEHRSIVNQLGWLRETYAIDRSKVILQKTPMSFDAAQWEILSPANGATVVMGAPGVYADPEGLIETIVKHNVTTLQCVPTLLQGLIDTEKFPECVSLQQIFSGGEALSRLLAIQTTQEMPGRALINVYGPTETTINSSSFPVDPADLDEGPQSISIGSPVHGTTYHILDKETLKPVGVGEIGELYIGGIQLARGYLHRDDLTAERFLEIELEEGAEPVRLYKTGDLGQWNNDGTVQFAGRADNQVKLRGYRVELDEISLAIENHDWVRNAAVIVKNDGRTGFQNLIACIELSEKEAALMDQGNHGSHHASKKSKLQVKAQLSNPGLRDDAELAARPAFDLEGAEPTPEQRARVFARKTYRFYEGGAVTQADLLGLLGATVTAGYSRKAADLAPAELGQILRWFGQYISEERLLPKYGYASPGALYATQMYFELEGVGGLKPGYYYYQPVRHQLVLISEREATGKATAQIHFIGKKSGIEPVYKNNILEVLEIETGHMVGLFEQILPAYGLDIHDRAYEPAVKDLLDVADEDYYLGTFELVPHAGARDDQAEVYVQTHGGKVAGLPEGQYRYENGELTRFSDDIVLKKHVIAINQSVYQAASFGISVYSRAEEEWLKYITLGKKLQHLMMNGLNLGFMSSGYSSKTGNPLPASRRMDAVLGANGVDSAPMYFFVGGRISDEQIGHEGMREDSVHMRGPAELIRDDLVSFLPDYMIPNRVVVFDRLPLSANGKIDVKALAASDQVNAELVERPHVAPRTEFEQRLAALWEQVLQVERVGLNDNFFALGGHSLLAVSLAGRIRETFDVSIKLHDFLLMQTLGELADFMRREVAQESSRFVRLHAETGKARPVICWPGLGGYPMNLRSLAGEIGLGRSFYGVQSYGINEGETPYETITEMAKKDIEALKEIQPAGPYTLWGYSFGARVAFETAYQLEQAGEKVDNLFLIAPGSPKVRAENGKVWGREASFANRGYTTILFSVFTGTISGPDLDRCLETVTDEASFAEFISELKGIDVDLARRIISVVGQTYEFEYSFHELAERTLQAPISIFKAVGDDYSFLENSSGYSAEPPTVIDLDADHYSLLREDIGELVKHIRYLLGE
As to B1, the “Relative activity (in vivo pigment synthesis relative to wild type BpsA)” value in series [3] was about 5%.

B2: slPvdD2: mBpsA with T-domain from second module of pvdD of P. aeruginosa PAO1; SEQ ID NO: 7 (protein)
chain: MTLQETSVLEPTLQGTTTLPGLLAQRVAEHPEAIAVAYRDDKLTFRELASRSAALADYLEHLGVSADDCVGLFVEPSIDLMVGAWGILNAGAAYLPLSPEYPEDRLRYMIENSETKIILAQQRLVSRLRELAPKDVTIVTLRESEAFVRPEGTEAPAARSARPDTLAYVIYTSGSTGKPKGVMIEHRSIVNQLGWLRETYAIDRSKVILQKTPMSFDAAQWEILSPANGATVVMGAPGVYADPEGLIETIVKHNVTTLQCVPTLLQGLIDTEKFPECVSLQQIFSGGEALSRLLAIQTTQEMPGRALINVYGPTETTINSSSFPVDPADLDEGPQSISIGSPVHGTTYHILDKETLKPVGVGEIGELYIGGIQLARGYLHRDDLTAERFLEIELEEGAEPVRLYKTGDLGQWNNDGTVQFAGRADNQVKLRGYRVELDEISLAIENHDWVRNAAVIVKNDGRTGFQNLIACIELSEKEAALMDQGNHGSHHASKKSKLQVKAQLSNPGLRDDAELAARPAFDLEGAEPTPEQRARVFARKTYRFYEGGAVTQADLLGLLGATVTAGYSRKAADLAPAELGQILRWFGQYISEERLLPKYGYASPGALYATQMYFELEGVGGLKPGYYYYQPVRHQLVLISEREATGKATAQIHFIGKKSGIEPVYKNNILEVLEIETGHMVGLFEQILPAYGLDIHDRAYEPAVKDLLDVADEDYYLGTFELVPHAGARDDQAEVYVQTHGGKVAGLPEGQYRYENGELTRFSDDIVLKKHVIAINQSVYQAASFGISVYSRAEEEWLKYITLGKKLQHLMMNGLNLGFMSSGYSSKTGNPLPASRRMDAVLGANGVDSAPMYFFVGGRISDEQIGHEGMREDSVHMRGPAELIRDDLVSFLPDYMIPNRVVVFDRLPLSANGKIDVKALAASDQVNAELVERPYRAPGSELEQRIAAIWAEILGVERVGLDDNFFELGGHSLLLLMLKERIGDTCQATLSISQLMTHASVAEQAACIEREVAQESSRFVRLHAETGKARPVICWPGLGGYPMNLRSLAGEIGLGRSFYGVQSYGINEGETPYETITEMAKKDIEALKEIQPAGPYTLWGYSFGARVAFETAYQLEQAGEKVDNLFLIAPGSPKVRAENGKVWGREASFANRGYTTILFSVFTGTISGPDLDRCLETVTDEASFAEFISELKGIDVDLARRIISVVGQTYEFEYSFHELAERTLQAPISIFKAVGDDYSFLENSSGYSAEPPTVIDLDADHYSLLREDIGELVKHIRYLLGE
Turning to B2, in series [3], the “Relative activity (in vivo pigment synthesis relative to wild type BpsA)” value is reported as about 5%.
